Source: patent US20230250154A1 (CYTONICS, published 2023)
Values belong to the binder of their own block, whether it stands above or below them.

Experiments:
Experiment in all cases: cell-based or functional assay
MMP1 = target: T1, MMP1 (human, UniProt P03956 100-469, limits assumed)
T1 sequence (looked up): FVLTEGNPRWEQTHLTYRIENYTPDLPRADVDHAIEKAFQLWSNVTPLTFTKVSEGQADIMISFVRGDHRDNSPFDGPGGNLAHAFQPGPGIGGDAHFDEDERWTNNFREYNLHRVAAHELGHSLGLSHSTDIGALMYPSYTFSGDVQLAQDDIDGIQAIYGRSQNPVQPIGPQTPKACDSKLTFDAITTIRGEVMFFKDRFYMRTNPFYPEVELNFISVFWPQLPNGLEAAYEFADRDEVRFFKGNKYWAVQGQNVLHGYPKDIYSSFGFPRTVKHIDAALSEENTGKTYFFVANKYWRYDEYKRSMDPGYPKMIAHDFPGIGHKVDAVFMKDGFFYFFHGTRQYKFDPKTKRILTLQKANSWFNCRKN

Cathepsin G = target: T2, Cathepsin G (UniProt P08311 21-244)
T2 sequence (looked up): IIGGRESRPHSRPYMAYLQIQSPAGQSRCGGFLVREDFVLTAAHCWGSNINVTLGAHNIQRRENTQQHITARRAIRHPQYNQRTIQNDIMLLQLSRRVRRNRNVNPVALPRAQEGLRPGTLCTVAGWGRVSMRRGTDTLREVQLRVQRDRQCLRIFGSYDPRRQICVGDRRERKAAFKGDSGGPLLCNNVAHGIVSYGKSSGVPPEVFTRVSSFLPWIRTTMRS

Elastase = target: Elastase

Protease Inhibition (% of WT) (MMP1): 200 % of WT
Protease Inhibition (% of WT) (Cathepsin G): 100 % of WT
Protease Inhibition (% of WT) (Elastase): 250 % of WT
B1: Variant A2M, bait region SEQ ID NO 138 (other)
chain: SVSGKPQYMVLVPSLLHTETTEKGCVLLSYLNETVTVSASLESVRGNRSLFTDLEAENDVLHCVAFAVPKSSSNEEVMFLTVQVKGPTQEFKKRTTVMVKNEDSLVFVQTDKSIYKPGQTVKFRVVSMDENFHPLNELIPLVYIQDPKGNRIAQWQSFQLEGGLKQFSFPLSSEPFQGSYKVVVQKKSGGRTEHPFTVEEFVLPKFEVQVTVPKIITILEEEMNVSVCGLYTYGKPVPGHVTVSICRKYSDASDCHGEDSQAFCEKFSGQLNSHGCFYQQVKTKVFQLKRKEYEMKLHTEAQIQEEGTVVELTGRQSSEITRTITKLSFVKVDSHFRQGIPFFGQVRLVDGKGVPIPNKVIFIRGNEANYYSNATTDEHGLVQFSINTTNVMGTSLTVRVNYKDRSPCYGYQWVSEEHEEAHHTAYLVFSPSKSFVHLEPMSHELPCGHTQTVQAHYILNGGTLLGLKKLSFYYLIMAKGGIVRTGTHGLLVKQEDMKGHFSISIPVKSDIAPVARLLIYAVLPTGDVIGDSAKYDVENCLANKVDLSFSPSQSLPASHAHLRVTAAPQSVCALRAVDQSVLLMKPDAELSASSVYNLLPEKDLTGFPGPLNDQDDEDCINRHNVYINGITYTPVSSTNEKDMYSFLEDMGLKAFTNSKIRKPKMCPQLEQYEMHGPSEDLVVQIEGEGEGEGIPENFFGVKEEEGLGSVEEPHTKLRKYFPETWIWDLVVVNSAGVAEVGVTVPDTITEWKAGAFCLSEDAGLGISSTASLRAFQPFFVELTMPYSVIRGEAFTLKATVLNYLPKCIRVSVQLEASPAFLAVPVEKEQAPHCICANGRQTVSWAVTPKSLGNVNFTVSAEALESQELCGTEVPSVPEHGRKDTVIKPLLVEPEGLEKETTFNSLLCPSGGEVSEELSLKLPPNVVEESARASVSVLGDILGSAMQNTQNLLQMPYGCGEQNMVLFAPNIYVLDYLNETQQLTPEIKSKAIGYLNTGYQRQLNYKHYDGSYSTFGERYGRNQGNTWLTAFVLKTFAQARAYIFIDEAHITQALIWLSQRQKDNGCFRSSGSLLNNAIKGGVEDEVTLSAYITIALLEIPLTVTHPVVRNALFCLESAWKTAQEGDHGSHVYTKALLAYAFALAGNQDKRKEVLKSLNEEAVKKDNSVHWERPQKPKAPVGHFYEPQAPSAEVEMTSYVLLAYLTAQPAPTSEDLTSATNIVKWITKQQNAQGGFSSTQDTVVALHALSKYGAATFTRTGKAAQVTIQSSGTFSSKFQVDNNNRLLLQQVSLPELPGEYSMKVTGEGCVYLQTSLKYNILPEKEEFPFALGVQTLPQTCDEPKAHTSFQISLSVSYTGSRSASNMAIVDVKMVSGFIPLKPTVKMLERSNHVSRTEVSSNHVLIYLDKVSNQTLSLFFTVLQDVPVRDLKPAIVKVYDYYETDEFAIAEYNAPCSKDLGNADYKDDDDKGASHHHHHH

Protease Inhibition (% of WT) (MMP1): 350 % of WT
Protease Inhibition (% of WT) (Cathepsin G): 300 % of WT
Protease Inhibition (% of WT) (Elastase): 200 % of WT
B2: Variant A2M, bait region SEQ ID NO 142 (other)
chain: SVSGKPQYMVLVPSLLHTETTEKGCVLLSYLNETVTVSASLESVRGNRSLFTDLEAENDVLHCVAFAVPKSSSNEEVMFLTVQVKGPTQEFKKRTTVMVKNEDSLVFVQTDKSIYKPGQTVKFRVVSMDENFHPLNELIPLVYIQDPKGNRIAQWQSFQLEGGLKQFSFPLSSEPFQGSYKVVVQKKSGGRTEHPFTVEEFVLPKFEVQVTVPKIITILEEEMNVSVCGLYTYGKPVPGHVTVSICRKYSDASDCHGEDSQAFCEKFSGQLNSHGCFYQQVKTKVFQLKRKEYEMKLHTEAQIQEEGTVVELTGRQSSEITRTITKLSFVKVDSHFRQGIPFFGQVRLVDGKGVPIPNKVIFIRGNEANYYSNATTDEHGLVQFSINTTNVMGTSLTVRVNYKDRSPCYGYQWVSEEHEEAHHTAYLVFSPSKSFVHLEPMSHELPCGHTQTVQAHYILNGGTLLGLKKLSFYYLIMAKGGIVRTGTHGLLVKQEDMKGHFSISIPVKSDIAPVARLLIYAVLPTGDVIGDSAKYDVENCLANKVDLSFSPSQSLPASHAHLRVTAAPQSVCALRAVDQSVLLMKPDAELSASSVYNLLPEKDLTGFPGPLNDQDDEDCINRHNVYINGITYTPVSSTNEKDMYSFLEDMGLKAFTNSKIRKPKMCPQLEQYEMHGPSELEGRGSIPENFFGVEGEGEGEGKEEEGLGSVEEPHTKLRKYFPETWIWDLVVVNSAGVAEVGVTVPDTITEWKAGAFCLSEDAGLGISSTASLRAFQPFFVELTMPYSVIRGEAFTLKATVLNYLPKCIRVSVQLEASPAFLAVPVEKEQAPHCICANGRQTVSWAVTPKSLGNVNFTVSAEALESQELCGTEVPSVPEHGRKDTVIKPLLVEPEGLEKETTFNSLLCPSGGEVSEELSLKLPPNVVEESARASVSVLGDILGSAMQNTQNLLQMPYGCGEQNMVLFAPNIYVLDYLNETQQLTPEIKSKAIGYLNTGYQRQLNYKHYDGSYSTFGERYGRNQGNTWLTAFVLKTFAQARAYIFIDEAHITQALIWLSQRQKDNGCFRSSGSLLNNAIKGGVEDEVTLSAYITIALLEIPLTVTHPVVRNALFCLESAWKTAQEGDHGSHVYTKALLAYAFALAGNQDKRKEVLKSLNEEAVKKDNSVHWERPQKPKAPVGHFYEPQAPSAEVEMTSYVLLAYLTAQPAPTSEDLTSATNIVKWITKQQNAQGGFSSTQDTVVALHALSKYGAATFTRTGKAAQVTIQSSGTFSSKFQVDNNNRLLLQQVSLPELPGEYSMKVTGEGCVYLQTSLKYNILPEKEEFPFALGVQTLPQTCDEPKAHTSFQISLSVSYTGSRSASNMAIVDVKMVSGFIPLKPTVKMLERSNHVSRTEVSSNHVLIYLDKVSNQTLSLFFTVLQDVPVRDLKPAIVKVYDYYETDEFAIAEYNAPCSKDLGNADYKDDDDKGASHHHHHH

Protease Inhibition (% of WT) (MMP1): 400 % of WT
Protease Inhibition (% of WT) (Cathepsin G): 200 % of WT
Protease Inhibition (% of WT) (Elastase): 200 % of WT
B3: Variant A2M, bait region SEQ ID NO 139 (other)
chain: SVSGKPQYMVLVPSLLHTETTEKGCVLLSYLNETVTVSASLESVRGNRSLFTDLEAENDVLHCVAFAVPKSSSNEEVMFLTVQVKGPTQEFKKRTTVMVKNEDSLVFVQTDKSIYKPGQTVKFRVVSMDENFHPLNELIPLVYIQDPKGNRIAQWQSFQLEGGLKQFSFPLSSEPFQGSYKVVVQKKSGGRTEHPFTVEEFVLPKFEVQVTVPKIITILEEEMNVSVCGLYTYGKPVPGHVTVSICRKYSDASDCHGEDSQAFCEKFSGQLNSHGCFYQQVKTKVFQLKRKEYEMKLHTEAQIQEEGTVVELTGRQSSEITRTITKLSFVKVDSHFRQGIPFFGQVRLVDGKGVPIPNKVIFIRGNEANYYSNATTDEHGLVQFSINTTNVMGTSLTVRVNYKDRSPCYGYQWVSEEHEEAHHTAYLVFSPSKSFVHLEPMSHELPCGHTQTVQAHYILNGGTLLGLKKLSFYYLIMAKGGIVRTGTHGLLVKQEDMKGHFSISIPVKSDIAPVARLLIYAVLPTGDVIGDSAKYDVENCLANKVDLSFSPSQSLPASHAHLRVTAAPQSVCALRAVDQSVLLMKPDAELSASSVYNLLPEKDLTGFPGPLNDQDDEDCINRHNVYINGITYTPVSSTNEKDMYSFLEDMGLKAFTNSKIRKPKMCPQLEQYEMHGPSEDLVVQIEGEGEGEGIPENFFGVEAIPMSIPTEPHTKLRKYFPETWIWDLVVVNSAGVAEVGVTVPDTITEWKAGAFCLSEDAGLGISSTASLRAFQPFFVELTMPYSVIRGEAFTLKATVLNYLPKCIRVSVQLEASPAFLAVPVEKEQAPHCICANGRQTVSWAVTPKSLGNVNFTVSAEALESQELCGTEVPSVPEHGRKDTVIKPLLVEPEGLEKETTFNSLLCPSGGEVSEELSLKLPPNVVEESARASVSVLGDILGSAMQNTQNLLQMPYGCGEQNMVLFAPNIYVLDYLNETQQLTPEIKSKAIGYLNTGYQRQLNYKHYDGSYSTFGERYGRNQGNTWLTAFVLKTFAQARAYIFIDEAHITQALIWLSQRQKDNGCFRSSGSLLNNAIKGGVEDEVTLSAYITIALLEIPLTVTHPVVRNALFCLESAWKTAQEGDHGSHVYTKALLAYAFALAGNQDKRKEVLKSLNEEAVKKDNSVHWERPQKPKAPVGHFYEPQAPSAEVEMTSYVLLAYLTAQPAPTSEDLTSATNIVKWITKQQNAQGGFSSTQDTVVALHALSKYGAATFTRTGKAAQVTIQSSGTFSSKFQVDNNNRLLLQQVSLPELPGEYSMKVTGEGCVYLQTSLKYNILPEKEEFPFALGVQTLPQTCDEPKAHTSFQISLSVSYTGSRSASNMAIVDVKMVSGFIPLKPTVKMLERSNHVSRTEVSSNHVLIYLDKVSNQTLSLFFTVLQDVPVRDLKPAIVKVYDYYETDEFAIAEYNAPCSKDLGNADYKDDDDKGASHHHHHH
